Measured values published in US20040018487A1.

The substances below were run against HPV 16 E6 C-terminal PL peptide (TQL), biotinylated (HPV 16) (assay: G assay, HPV16 E6 PL peptide titrated against a constant amount of GST-PDZ).

GST-Magi3 PDZ domain 1, sequence (Q5TCQ9 other isoform, or with tags, fused parts or gaps limits assumed): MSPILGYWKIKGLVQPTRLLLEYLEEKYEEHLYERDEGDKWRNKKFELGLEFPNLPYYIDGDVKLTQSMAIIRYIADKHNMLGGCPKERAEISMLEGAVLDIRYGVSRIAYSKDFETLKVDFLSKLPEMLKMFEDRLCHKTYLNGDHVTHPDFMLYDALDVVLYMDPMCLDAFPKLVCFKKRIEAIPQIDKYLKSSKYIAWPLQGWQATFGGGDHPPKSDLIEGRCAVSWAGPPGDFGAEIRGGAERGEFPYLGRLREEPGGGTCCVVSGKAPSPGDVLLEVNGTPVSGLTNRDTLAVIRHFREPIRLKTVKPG
GST-DLG3 PDZ domains 1-2, sequence (Q92796 other isoform, or with tags, fused parts or gaps limits assumed): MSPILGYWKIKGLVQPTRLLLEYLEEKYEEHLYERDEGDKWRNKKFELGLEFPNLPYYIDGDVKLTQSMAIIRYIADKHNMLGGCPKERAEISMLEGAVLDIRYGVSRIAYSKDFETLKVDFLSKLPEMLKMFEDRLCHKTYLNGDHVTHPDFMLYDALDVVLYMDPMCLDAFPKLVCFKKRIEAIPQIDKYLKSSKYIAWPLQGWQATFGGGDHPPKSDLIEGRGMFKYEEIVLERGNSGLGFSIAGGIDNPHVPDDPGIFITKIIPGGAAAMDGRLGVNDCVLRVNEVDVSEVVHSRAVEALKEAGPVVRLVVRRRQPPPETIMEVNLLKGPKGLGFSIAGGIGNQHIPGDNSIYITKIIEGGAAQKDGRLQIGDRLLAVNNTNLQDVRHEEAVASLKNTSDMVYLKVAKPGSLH
GST-SAST1 KIAA PDZ domain, sequence (Q9Y2H9 other isoform, or with tags, fused parts or gaps): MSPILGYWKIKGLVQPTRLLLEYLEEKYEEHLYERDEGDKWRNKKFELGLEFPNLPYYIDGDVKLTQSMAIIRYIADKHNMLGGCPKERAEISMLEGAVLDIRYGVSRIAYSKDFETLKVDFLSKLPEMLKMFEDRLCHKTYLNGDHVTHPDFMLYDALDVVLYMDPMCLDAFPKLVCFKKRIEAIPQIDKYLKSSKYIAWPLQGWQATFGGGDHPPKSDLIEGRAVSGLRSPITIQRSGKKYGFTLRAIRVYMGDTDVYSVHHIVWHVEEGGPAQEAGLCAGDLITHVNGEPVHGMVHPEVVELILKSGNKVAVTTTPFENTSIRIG

**Q.** How did the EC50 turn out when GST-MAGI1 PDZ domain 2 was run?
**A.** 56 nM

**Q.** How did the EC50 turn out when “GST-SAST1 KIAA PDZ domain (from UniProt Q9Y2H9 960-1062)” was run?
**A.** 580 nM

**Q.** “GST-DLG3 PDZ domains 1-2 (from UniProt Q92796 125-316)” was tested. Which EC50 did it give?
**A.** 3800 nM

**Q.** How did the EC50 turn out when “GST-VARTUL (PDZ domain not stated) (from UniProt Q14160 720-955)” was run?
**A.** 940 nM

**Q.** Which EC50 does the source give for GST-SIP1 PDZ domain 1 here?
**A.** 7500 nM

**Q.** For GST-SAST2 PDZ domain, which EC50 is on record?
**A.** 1200 nM

**Q.** How did the EC50 turn out when GST-DLG2 PDZ domain 3 was run?
**A.** 1600 nM

**Q.** How did the EC50 turn out when “GST-Magi3 PDZ domain 1 (from UniProt Q5TCQ9 18-106)” was run?
**A.** 310 nM
